{
  "source": "paper PMC4335062",
  "about": "“Data-Driven Prediction and Design of bZIP Coiled-Coil Interactions” (PLoS Computational Biology, 2015)",
  "molecules": {"B1": {"name": "ATF5-d1, rhodamine-labelled at the N-terminus (designed binder)", "chain": "GESKEYKKGSGSC(Rhodamine Red C2‑maleimide)GKRIAYLRQRIAELRNENHVLESRIQRMEKEKDALQQDRDHLEYEL"}, "B2": {"name": "ATF5-d1, rhodamine-labelled at the C-terminus (designed binder)", "chain": "GESKEYKKGSGSKRIAYLRQRIAELRNENHVLESRIQRMEKEKDALQQDRDHLEYELGC(Rhodamine Red C2‑maleimide)", "notes": "solubility linker after the His tag; added at the C-terminus for labelling; source: E. coli RP3098, purified (Ni-NTA under denaturing conditions, reverse-phase HPLC)"}, "B3": {"name": "ATF2: native human bZIP coiled coil (protein)", "chain": "MKFKLHVNSARQYKDLWNMSDDKPFLCTAPGCGQRFTNEDHLAVHKHKHEMTLKFGPARNDSVIVADQTPTPTRFLKNCEEVGLFNELASPFENEFKKASEDDIKKMPLDLSPLATPIIRSKIEEPSVVETTHQDSPLPHPESTTSDEKEVPLAQTAQPTSAIVRPASLQVPNVLLTSSDSSVIIQQAVPSPTSSTVITQAPSSNRPIVPVPGPFPLLLHLPNGQTMPVAIPASITSSNVHVPAAVPLVRPVTMVPSVPGIPGPSSPQPVQSEAKMRLKAALTQQHPPVTNGDTVKGHGSGLVRTQSEESRPQSLQQPATSTTETPASPAHTTPQTQSTSGRRRRAANEDPDEKRRKFLERNRAAASRCRQKRKVWVQSLEKKAEDLSSLNGQLQSEVTLLRNEVAQLKQLLLAHKDCPVTAMQKKSGYHTADKDDSSEDISVPSSPHTEAIQHSSVSTSNGVSSTSKAEAVATSVLTQMADQSTEPALSQIVMAPSSQSQPSGS", "modifications": "fluorescein at the C-terminus (FRET donor) or TAMRA (FRET acceptor), by assay", "notes": "native human bZIP coiled coil"}, "B4": {"name": "ATF5: native human bZIP coiled coil (protein)", "chain": "MSLLATLGLELDRALLPASGLGWLVDYGKLPPAPAPLAPYEVLGGALEGGLPVGGEPLAGDGFSDWMTERVDFTALLPLEPPLPPGTLPQPSPTPPDLEAMASLLKKELEQMEDFFLDAPPLPPPSPPPLPPPPLPPAPSLPLSLPSFDLPQPPVLDTLDLLAIYCRNEAGQEEVGMPPLPPPQQPPPPSPPQPSRLAPYPHPATTRGDRKQKKRDQNKSAALRYRQRKRAEGEALEGECQGLEARNRELKERAESVEREIQYVKDLLIEVYKARSQRTRSC", "modifications": "fluorescein at the C-terminus (FRET donor) or TAMRA (FRET acceptor), by assay", "notes": "native human bZIP coiled coil"}},
  "key": {"XBP1": {"target": "T1, XBP1 (Homo sapiens, UniProt P17861)", "T1 construct": "made in house", "T1 sequence (P17861 70-133 limits assumed)": "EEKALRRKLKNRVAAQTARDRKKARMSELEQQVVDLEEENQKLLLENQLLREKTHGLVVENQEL", "test": "Direct-binding FRET assay", "settings": "C-terminal rhodamine design", "description": "(§1) The direct binding assay was performed manually in 384-well plates and is similar to a previously described assay. Wells were filled with 20 μL of 1 mM TCEP-HCl. A 4 μM stock of acceptor protein was made fresh in 1 mM TCEP-HCl, and 20 μL was titrated in 2-fold dilutions over the wells. […] The direct-binding FRET data were fit as previously described. Briefly, the Kd of the designed peptide homodimer was experimentally determined and used with previously determined target homodimer Kd values to determine the heterodimer Kd. The homodimer Kd values used for the human bZIPs were from; experiments done by […] et al. used the same protein constructs for the human bZIP proteins, the same buffer conditions, and the same assay. The fitting used a system of ordinary differential equations to describe the concentrations of homo and heterodimers formed by the donor (D) and acceptor (A) as a function of the heterodimer Kd. MATLAB was used to simulate the binding experiment for different Kd values, and the value that gave the best agreement between simulation and experiment was assigned. A minimum 15% change in the donor fluorescence upon titrating the acceptor peptide from 0 to 1000 nM was required for a fit to be attempted. If this minimum was not met, the interaction was classified as “NS” for no signal change. […] For such curves, we removed the first five points and re-fit the data."}, "ATF3": {"target": "T2, ATF3 (Homo sapiens, UniProt P18847)", "T2 construct": "made in house", "T2 sequence (P18847 86-149 limits assumed)": "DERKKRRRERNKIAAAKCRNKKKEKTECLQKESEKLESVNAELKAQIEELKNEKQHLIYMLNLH", "test": "Direct-binding FRET assay", "settings": "C-terminal rhodamine design, mean or single, read-out: Kd", "description": "as §1"}, "JUN": {"target": "JUN (Homo sapiens, UniProt P05412)", "test": "Direct-binding FRET assay", "parameters": "made in house", "settings": "37°C; C-terminal rhodamine design; mean or single; read-out: Kd", "description": "as §1"}, "XBP1 bZIP (Homo sapiens)": {"target": "XBP1 bZIP (Homo sapiens) (UniProt P17861)", "settings": "cited from earlier work"}, "[1]": {"target": "BATF2 bZIP, C-terminally fluoresceinated (human) (UniProt Q8N1L9)", "sequence (Q8N1L9 whole entry)": "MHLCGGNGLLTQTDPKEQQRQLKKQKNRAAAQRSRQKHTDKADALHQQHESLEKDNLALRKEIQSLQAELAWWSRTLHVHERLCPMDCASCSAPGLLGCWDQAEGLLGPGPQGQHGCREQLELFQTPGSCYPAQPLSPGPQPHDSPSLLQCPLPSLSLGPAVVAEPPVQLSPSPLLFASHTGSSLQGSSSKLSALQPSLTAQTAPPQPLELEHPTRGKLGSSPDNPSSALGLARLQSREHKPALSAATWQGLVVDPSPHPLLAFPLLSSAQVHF", "test": "FRET or BRET; direct-binding FRET at 4°C; 10 nM fluorescein-labelled bZIP (donor), rhodamine-labelled design (acceptor) titrated 0 to 1 μM; 150 mM KCl, 50 mM potassium phosphate pH 7.4, 0.1% Tween-20, 0.1% BSA"}, "[2]": {"target": "T3, Activating Transcription Factor 4 (ATF4) bZIP construct, C-terminally fluoresceinated (human, UniProt P18848 278-351, fluorescein at the C-terminus)", "T3 construct": "source: previously described, donated by A.W. Reinke [18]", "T3 sequence (looked up)": "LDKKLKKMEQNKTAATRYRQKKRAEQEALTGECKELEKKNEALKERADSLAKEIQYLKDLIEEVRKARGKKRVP", "test": "FRET or BRET; direct-binding FRET at 37°C; 10 nM fluorescein-labelled bZIP (donor), rhodamine-labelled design (acceptor) titrated 0 to 1 μM; 150 mM KCl, 50 mM potassium phosphate pH 7.4, 0.1% Tween-20, 0.1% BSA", "settings": "both partners purified"}, "[3]": {"target": "partner bZIP coiled coil (Protein2)", "settings": "cited from earlier work", "description": "Supplement pcbi.1004046.s020.csv, table | column: Kd || Fig 4 Designed bZIP-binding peptides inhibit interactions of native bZIP dimers. […] The dissociation constants at the indicated temperatures are Kd ≤ 1 nM for FOS-JUN, Kd ≤1 nM for XBP1-CREBZF, and Kd = 60 nM for ATF4-FOS, according to [18]. Fluorescence intensities were measured at both 37°C and 23°C, a ..."}},
  "note": "Like-named read-outs stand apart in the source and are kept apart here. Where no end group is shown, it is not given here.",
  "data": [
    {"molecule": "AETDQLENRVKDLKKKNESLKEEKRQASNKYKALLTNNRSLKVKA [XBP1-d2]", "values": [
      {"measurement": "Kd", "setting": "XBP1; 37°C, mean or single, read-out: Kd", "value": "≥ 5", "unit": "µM"},
      {"measurement": "binding to XBP1", "setting": "XBP1; 4, 23 or 37°C", "value": "did not bind detectably"}
    ]},
    {"molecule": "KDAASLENKKEELKVQNRILVDERKYLQMMNSELKDELAAHE [ATF3-d3]", "values": [
      {"measurement": "Kd", "setting": "ATF3; 4°C", "value": 117, "unit": "nM"},
      {"measurement": "Kd", "setting": "ATF3; 37°C", "value": "≥ 5000", "unit": "nM"}
    ]},
    {"molecule": "NDLARLENKAEELKVQNRILVDERKYLQREISELHDELAAHE [ATF3-d1]", "values": [
      {"measurement": "Kd", "setting": "ATF3; 37°C", "value": "~1000", "unit": "nM"}
    ]},
    {"molecule": "NLVAQLEKKNEALKAENAALEIERIQLQDKIEELKYELAAIE [ATF3-d2]", "values": [
      {"measurement": "Kd", "setting": "ATF3; 37°C", "value": 564, "unit": "nM"}
    ]},
    {"molecule": "QRALQLQKEKERLEKMNKKLAAEIESLLEERERLESVLNYHE [JUN-d2]", "values": [
      {"measurement": "Kd", "setting": "JUN", "value": 1, "unit": "nM"}
    ]},
    {"molecule": "XBP1 bZIP (from UniProt P17861)", "values": [
      {"measurement": "Kd", "setting": "XBP1 bZIP (Homo sapiens)", "value": 8, "unit": "nM"}
    ]},
    {"molecule": "B1", "values": [
      {"measurement": "FRET efficiency", "setting": "[1]", "value": 0.65}
    ]},
    {"molecule": "B2", "values": [
      {"measurement": "Kd", "setting": "[2]", "value": "4.9 ± 1", "unit": "nM"},
      {"measurement": "FRET efficiency", "setting": "[1]", "value": 0.31}
    ]},
    {"molecule": "B3", "values": [
      {"measurement": "Kd", "setting": "[3]; Protein2 = ATF6 (HS), intra, 5000 assigned if Kd >5,000 nM or no binding", "value": 5000, "unit": "nM"},
      {"measurement": "Kd", "setting": "[3]; Protein2 = CE20 (CE), inter, 5000 assigned if Kd >5,000 nM or no binding", "value": 5000, "unit": "nM"}
    ]},
    {"molecule": "B4", "values": [
      {"measurement": "Kd", "setting": "[3]; Protein2 = CEBPE (HS), intra", "value": 27.8, "unit": "nM"},
      {"measurement": "Kd", "setting": "[3]; Protein2 = CI20 (CI), inter", "value": 551, "unit": "nM"}
    ]}
  ]
}
